Measured values: US12325756

B1: P4-z anti-mesothelin chimeric antigen receptor (P4 scFv - CD8a hinge and transmembrane region - CD3z) (protein)
chain: GSQVQLQQSGPGLVTPSQTLSLTCAISGDSVSSNSATWNWIRQSPSRGLEWLGRTYYRSKWYNDYAVSVKSRMSINPDTSKNQFSLQLNSVTPEDTAVYYCARGMMTYYYGMDVWGQGTTVTVSSGILGSGGGGSGGGGSGGGGSQPVLTQSSSLSASPGASASLTCTLRSGINVGPYRIYWYQQKPGSPPQYLLNYKSDSDKQQGSGVPSRFSGSKDASANAGVLLISGLRSEDEADYYCMIWHSSAAVFGGGTQLTVLSASTTTPAPRPPTPAPTIASRPLSLRPEACRPAAGGAVHTRGLDFACDIYIWAPLAGTCGVLLLSLVITLYCRVKFSRSADAPAYQQGQNQLYNELNLGRREEYDVLDKRRGRDPEMGGKPRRKNPQEGLYNELQKDKMAEAYSEIGMKGERRRGKGHDGLYQGLSTATKDTYDALHMQALPPR
B2: MOV19-28 (F-28) costimulatory-only anti-aFR chimeric antigen receptor (MOv-19 scFv - CD8a hinge - CD28 transmembrane - CD28 intracellular domain) (protein)
chain: GSSRAAQPAMAQVQLQQSGAELVKPGASVKISCKASGYSFTGYFMNWVKQSHGKSLEWIGRIHPYDGDTFYNQNFKDKATLTVDKSSNTAHMELLSLTSEDFAVYYCTRYDGSRAMDYWGQGTTVTVSSGGGGSGGGGSGGGGSDIELTQSPASLAVSLGQRAIISCKASQSVSFAGTSLMHWYHQKPGQQPKLLIYRASNLEAGVPTRFSGSGSKTDFTLNIHPVEEEDAATYYCQQSREYPYTFGGGTKLEIKRAAASTTTPAPRPPTPAPTIASQPLSLRPEACRPAAGGAVHTRGLDFACDFWVLVVVGGVLACYSLLVTVAFIIFWVRSKRSRLLHSDYMNMTPRRPGPTRKHYQPYAPPRDFAAYRS

Experiments:
[1] = target: human mesothelin on tumor cells (C30-M, C30M/F, A1847) (human), Q13421; assay: cell-based or functional assay
[2] = target: human alpha-folate receptor on tumor cells (C30-F, C30M/F, A1847) (human), P15328; assay: cell-based or functional assay
human alpha-folate receptor on tumor cells (C30-F, C30M/F, A1847) (human), P15328, sequence (P15328 25-234, stated change not applied): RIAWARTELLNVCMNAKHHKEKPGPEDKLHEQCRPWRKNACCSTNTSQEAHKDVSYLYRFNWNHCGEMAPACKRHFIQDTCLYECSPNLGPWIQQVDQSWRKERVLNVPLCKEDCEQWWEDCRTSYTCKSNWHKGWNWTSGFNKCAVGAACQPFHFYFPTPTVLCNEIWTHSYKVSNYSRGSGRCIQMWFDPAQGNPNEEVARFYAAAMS

human mesothelin on tumor cells (C30-M, C30M/F, A1847) (human), Q13421, sequence (Q13421 other isoform, or with tags, fused parts or gaps C30M C30M): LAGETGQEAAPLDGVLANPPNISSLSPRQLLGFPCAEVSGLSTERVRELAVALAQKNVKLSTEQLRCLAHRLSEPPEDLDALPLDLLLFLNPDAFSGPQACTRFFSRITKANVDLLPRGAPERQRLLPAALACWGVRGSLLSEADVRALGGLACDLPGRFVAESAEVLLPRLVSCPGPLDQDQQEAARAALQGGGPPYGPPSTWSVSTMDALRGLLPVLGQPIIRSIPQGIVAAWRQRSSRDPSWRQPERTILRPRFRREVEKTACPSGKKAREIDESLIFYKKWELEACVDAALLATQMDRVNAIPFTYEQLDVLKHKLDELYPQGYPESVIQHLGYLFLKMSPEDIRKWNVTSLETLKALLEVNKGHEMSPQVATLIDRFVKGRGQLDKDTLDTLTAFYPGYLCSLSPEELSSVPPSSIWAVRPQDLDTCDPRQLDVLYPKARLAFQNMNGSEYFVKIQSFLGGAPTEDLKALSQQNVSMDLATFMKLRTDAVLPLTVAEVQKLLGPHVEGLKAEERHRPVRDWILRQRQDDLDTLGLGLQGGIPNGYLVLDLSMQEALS

Row | Binder | apoptosis (annexin V / 7-AAD) after 3 days with A1847 [1] [%] | apoptosis (annexin V / 7-AAD) after 3 days with A1847 [2] [%]
1 | B1 | 34 | –
2 | B2 | – | 0.5 to 1
